Data published in article PMC10104473.

Target: TEA domain transcription factor 1 (TEAD1) on the HuProt Human Proteome Microarray v3.1 (human) (UniProt P28347)
Assay: peptide or protein array; purified FLAG-Lamin A/C (WT or Q353R) applied to a HuProt Human Proteome Microarray v3.1; two samples each, averages of the pairs compared

Sequence of UniProt P28347 (P28347 whole entry, the tested form may be a part): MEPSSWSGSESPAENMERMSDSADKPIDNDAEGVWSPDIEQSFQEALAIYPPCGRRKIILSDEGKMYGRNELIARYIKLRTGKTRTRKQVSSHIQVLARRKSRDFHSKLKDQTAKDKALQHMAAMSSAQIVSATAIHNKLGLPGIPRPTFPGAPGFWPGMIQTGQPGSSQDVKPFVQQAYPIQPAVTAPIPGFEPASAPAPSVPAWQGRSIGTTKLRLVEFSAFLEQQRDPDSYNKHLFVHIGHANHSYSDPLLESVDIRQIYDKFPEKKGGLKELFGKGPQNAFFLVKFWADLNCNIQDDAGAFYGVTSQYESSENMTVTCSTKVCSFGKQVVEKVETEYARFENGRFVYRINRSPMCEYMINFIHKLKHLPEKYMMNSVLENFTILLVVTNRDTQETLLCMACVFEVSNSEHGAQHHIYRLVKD

fold affinity against WT Lamin A/C: 8 fold
Substance: FLAG-tagged Q353R Lamin A/C (from UniProt P02545 1-646) (natural protein)
